Assay: soluble on expression in E. coli; label from the status in PepcDB or PDB records

MAHHHHHHMNRLTNTNKGYTTNKEYISNNAQKNICTINYGQTYSNILNDEEKEKILQQYIYTLSHLSIIDIDREKDISLNISLLLKACLASHNYIKNVEIYTSQIKNQDICSFIYENRTDFEDFVNTHILKYIEFFNKDKIEDTLQSYIKDKILYDNELNIFNIIKNNNIELRKDILQDISFECIRLNKIIQYSLAVNKLDLFSYHIIFKIFMYFKTDQFYYHLFLNNIQKIKYYYSIKNITDQHKEIIYKIVDKYLYIIHYMNNMYQNRDIKNV
soluble on expression in E. coli: not soluble

MNRVYCTARSFRTSVKSNGWVHKWSRFKRWQEMQAAHVENVQEKQRNKNFIRLPTGLYITPERPDDLNPKKAPADMTRKDTGQLPMELLTWHTQMRYVDHSIDNIKRYRRYKKFQHMQYDQRVIPERLLFLGPDLAAAHFLVHRGAAVKFVGDDNWYKKDKWNRYSLPGRKVDNLFIEAIDASGTQIMFEGLENLENLQKLRLLRLANSEYVDDWCIGRIGGLLPNLEMLDLSGCHRISSKGLMGLKASKNLKFLRLEGLSGIRNLGKSALILEDLLPKLQILGMDYELSFRQIEAENRLLEQERVVLDGRGNAFVEDDNSRLFLVMSTSSDDKAVTDDHDNPIMTSTVRREIPKMDDAEFEEINALSGGKLRHLLVGSPSGYEWTETTERILEHEAELNLTDNVITDPKMLPRGKRPEFELPEHRSRLEDAKAQFLKEFGDFEENSDKEQLKSH
soluble on expression in E. coli: not soluble

RDLLEQSLPDDIEEEIEKIICSESMVKGVRRIRTRNIGNYYAVEADILMDGGLSVALSHAATQRVEKLLRGRYGQPTHIVIHVEPFS
soluble on expression in E. coli: not soluble

MYIVIAGGGEMGGELARALEKTHDVVVIDRNPQARERFASLDVKVVVGGATDPDTLREAGVDRADLFVASTDSDEINLLASLLAKGLGAKEAFCFVGKGGYVEVLTDPRTAEILGTRIDRVLWPQRAMAREIVEVILVPWAVDTEVLAGGRLRFVEYRVKEGGEYVHRLLSGEKWPEGVLLAGVVREGTFLSFAHPEFPELILEPGDKLLFVATQKAFSELAAYFTEGPGVRRVMVIGGGNVGFMVAQGLLKRRVEVVIVERNAERCQWLSEELPGALVIQGDGTDIELLEAEGMAEADAVVAVTDHDEKNLLASLLAKQMGVRKVITRVSRSETRRLFEQVGIDLALTPRQAAVREVLDWIGPENVEHIATLDESIEVLEVLVSEGAAPKALRDLVRPDAVPVALERDHRIFLYEEGLGLLPGDRLYLVAAREVADEVLAPFFPE
soluble on expression in E. coli: soluble

KKQITVLDLHPGAGKTRRILPQIIKEAINRRLRTAVLAPTRVVAAEMAEALRGLPIRYQTSAVAREHNGNEIVDVMCHATLTHRLMSPHRVPNYNLFVMDEAHFTDPASIAARGYISTRVELGEAAAIFMTATPPGTSDPFPESNAPISDLQTEIPDRAWNSGYEWITEYIGKTVWFVPSVKMGNEIALCLQRAGKKVIQLNRKSYETEYPKCKNDDWDFVVTTDISEMGANFKASRVIDSRKSVKPTIITEGEGRVILGEPSAVTAASAAQRRGRTGRNPSQAGDEYCYGGHTNEDDSNCAHWTEARIMLDNINMPNGLIAQFYQPEREKVYTMDGEYRLRGEERKNFLELLRTADLPVWLAYKVAAAGVSYHDRRWCFDGPRTNTILEDNNEVEVITKLGERKILRPRWIDARVYSDHQALKSFKDFASGKR
soluble on expression in E. coli: soluble

MHRASLICRLASPSRINAIRNASSGKSHISASTLVQHRNQSVAAAVKHEPFLNGSSSIYIEQMYEAWLQDPSSVHTSWDAYFRNVEAGAGPGQAFQAPPATAYAGALGVSPAAAQVTTSSAPATRLDTNASVQSISDHLKIQLLIRSYQTRGHNIADLDPLGINSADLDDTIPPELELSFYGLGERDLDREFLLPPTTFISEKKSLTLREILQRLKDIYCTSTGVEYMHLNNLEQQDWIRRRFEAPRVTELSHDQKKVLFKRLIRSTKFEEFLAKKWPSEKRFGLEGCEVLIPAMKQVIDSSSTLGVDSFVIGMPHRGRLNVLANVCRQPLATILSQFSTLEPADEGSGDVKYHLGVCIERLNRQSQKNVKIAVVANPSHLEAVDPVVMGKVRAEAFYAGDEKCDRTMAILLHGDAAFAGQGVVLETFNLDDLPSYTTHGAIHIVVNNQIGFTTDPRSSRSSPYCTDVGRVVGCPIFHVNVDDPEAVMHVCNVAADWRKTFKKDVIVDLVCYRRHGHNELDEPMFTQPLMYQRIKQTKTALEKYQEKILNEGVANEQYVKEELTKYGSILEDAYENAQKVTYVRNRDWLDSPWDDFFKKRDPLKLPSTGIEQENIEQIIGKFSQYPEGFNLHRGLERTLKGRQQMLKDNSLDWACGEALAFGSLLKEGIHVRLSGQDVQRGTFSHRHHVLHDQKVDQKIYNPLNDLSEGQGEYTVCNSSLSEYAVLGFELGYSMVDPNSLVIWEAQFGDFSNTAQCIIDQFISSGQSKWIRQSGLVMLLPHGYEGMGPEHSSARPERFLQMCNEDDEIDLEKIAFEGTFEAQQLHDTNWIVANCTTPANIYHLLRRQVTMPFRKPAVVFSPKSLLRHPMARSPVEDFQSGSNFQRVIPETGAPSQNPPDVKRVVFCTGKVYYDMVAARKHVGKENDVALVRVEQLSPFPYDLVQQECRKYQGAEILWAQEEHKNMGAWSFVQPRINSLLSIDGRATKYAGRLPSSSPATGNKFTHMQEQKEMMSKVFGVPKSKLEGFKA
soluble on expression in E. coli: not soluble

MAHHHHHHMGYLLEREQQRYSRHESAESATAFFASRGQTIDILGRTDPNQIKGNFFGLELYQDAMKVVMQRYTPEKRLTSADLWQPNALGDAPPPRHTLHRKLDDFLYLIVQEGATGKWTIPHTARKDDESLRMTADRAISSQNSEGLDCYVWSNAPQATVFLKDDNTRLFIYAATYLAGRPQFASFEPKPKDHAWVTRHELLQYSDTFKSAELLKALLDISADGTFEA
soluble on expression in E. coli: not soluble

MGSDKIHHHHHHMMIKVFPKLRKQIWGSYRLGEMFGSNEKIGEVWLLSGHPLFITEAEGGLDLNEDMEKLIGKKLPRFPLLVKLISAEDWLSVQVHPNDDEAQELENEPWGKTEAWYFVEKGQIAIGEDPEKVKRALEDNSWDEALKKVEIEPGTFVFLPAGTVHALGPGGLLVEVQQASDLTYRVYDWGRGRELHIEKAFKVMKERKVEDLIVENFENFECEYFRIEKLERGKLEGFCAIVILENGVLDNRQVSPFETFIVPKGEKAELRATALVMRIGKFFEQWGDKK
soluble on expression in E. coli: not soluble

MYNFFRTVPRANRNEITFYPDYEEEGQKKKKTRSMFSWLGGDSSKKKNKEVLETVSEGLRKIYKQKLLPLEEFHKFHDFHSPALDDPDFDAKPMILLVGQYSTGKTTFIRYLLESDFPGIRIGPEPTTDRFIAVMHGDEEGSIPGNALVVDAKKQFRALSGFGNAFLNRFQCSTLPNQVLESVTIVDTPGILSGEKQRIDRGYDFTGVLEWFAERVDRIILLFDAHKLDISDEFKRCIEALAGNEDKIRIVLNKSDMVDHQQLMRVYGALMWSLGKVFKTPEVSRVYLGSFWDHPLHYDLNRRLFQDEQHDLFQDLQALPRNAALRKLNDLIKRARLAKVHAYIIAELRKQMPSMIGKDKKKKDLIQNLDKIYEQLQREHNISPGDFPDVNKMREKLQTQDFSKFNPLKPKLLEVVDGMLATDIARLMAQIPKEEAAAPAGSNGSADPTVRGGAFSQTTEAETPFGFGRGEGFDKGADEAEWVVSRERTTADSTFESLGPVNGYLSGRAAKEHMVKSKLPNSVLGKVWKLADIDKDGQLDADEFALANYLINLKLEGHEIPSELPKHLIPPSKRGEQDPVYPSLNDNDE
soluble on expression in E. coli: soluble

MSLYRHIPLVALSLFSSLFLAACGNGTPPPAAARPAIVVQPQPAGEVSQAFPGEIRARHEPELAFRIGGKVIRRLVEVGERVKKDQPLAELDPQDVRLQLEAARAQVSAAEANLQTVRAEYRRYRTLLDRNLVSHSQFENIQNSYRAGEARLKQIRAEFNVADNQAGYAVLRSPQDGVIASRRVEVGQVVAAGQTVFSLAADGEREVLIGLPEHSFERFRIGQPVSVELWSQRDRRFAGHIRELSPAADPQSRTFAARVAFDDRATPAELGQSARVYVAAAEAVPLSVPLSALTAEAGQAFVWVVEPGSSTLRRQPVRTGPYAEDRVPVLEGLKAGDWVVATGVQVLREGQQVRPIDRANRTVKLAAKEEGHHHHHH
soluble on expression in E. coli: soluble

MSFNLSVIGAGLPVAQSTTTLIDALRTHRMAVVQAPPGTGKTTLVPPIAHNVTGGRVIVVAPRRVAVRAAAHHLVQLDQSSCDQPSTHRVGYTIRGERSRGDLVEFVTPGVLLRRLISNPELDGVSAVVVDEVHERQLDTDLVLGMLVELRELRDDLTVIAMSAT
soluble on expression in E. coli: not soluble
